# Measured values published in the DeepSol protein solubility set.
# Test: soluble on expression in E. coli; label from the status in PepcDB or PDB records
row,Sequence,soluble on expression in E. coli
1,MGSDKIHHHHHHMTVDPSHTIPVSVTGAFCSLNCPHCGAHYLRHMISVDEIPALVKKGYRSFLISGGMLPDGSIPFEKYYEHLKELKESHGLLYNFHVGFQKSKVAKELADVVSMDFFGDETVLKSIYGLALTPQEILDIAHFYENVVFHITVGITGGKITHEEKALEILSQETDTVVLNVFIPTPGTKFGKSFPPDLQEVVKLFEKARKLFKRVILGCMQPRGEYRKKLQSELKDLVDVITKPVGGTGEFKGCCAFIGRG,not soluble
2,MLIHIGIDDTDSPNGMCTTYIGAILYREISKIAEPLDFPRLIRLNPNVPYKTRGNGAVAMSFKIDEEKIKEVKTLVIRYVRELADIDHENTNPGIVFLIGEVPKELEEFSLRALREHVTIEEAEHVARKVNAEVYKFKLGRGIIGGLAAIGYPLEKFTYELLAYRKREYWGTPRRVIKESVFYADKWSYPFTYDNVDPYKRTVLITPHGKDPVLVGIRGIDVGKILQVFEMIKIEEPIEFFQVYKTNQNTDDHLVVKKIKDVKPYDNVVIRGKVAGKYWEKGRHVFFELEDETGKIRVAAFEPTKKFRNYVRKLLPGDEVIIAGGVKEFEGVLTVNLEKFYPVNLVPKVEYEKPRCPKCGGTMKSKGDYLKCKKCGYKMEKILTPVKRPRDLKKKIYEVPPDARKHISRPLVLPGGEDKILEALLEHHHHHH,soluble
3,MSLQQSPSTSRPQLGIGLIGTGFMGRAHALAFGSANAALELPARIHLAALADADSARAEQCAQAWGFDRSHADWQQLVEDPRVQIVAITTPNHLHFPMAMAAIAAGKAVYCEKPLAVSLAQADEMQRSAKAAGVVTQVGYNYQHNPMIGLAREMIEAGELGDIVSFQGEFSEDFMGSATSPWSWRCEAAHAGGALADLGSHLLAMARYLLGDIEAVCADANTVHSQRPASPGSNEMRAIAVDDQTHALLRFASGARGTFSSSWLKHGYKNHLSFEISGTQGTLTYDQERLNELRIYRPGAPGRDGFQRLLAGPAQPGYAAFCPAPGHQLGYNELKALEVQALILAVCGQGSRGPDFEEAWQIERLATAIRLAAHEQRWVALDDEGHHHHHH,soluble
4,MGSDKIHHHHHHMSDVLSQEEINQLIEALMKGELKEEDLLKEEEEKKVKPYDFKRPSKFSKEQLRTFQMIHENFGRALSTYLSGRLRTFVDVEISIDQLTYEEFIRSVMIPSFIVIFTGDVFEGSAIFEMRLDLFYTMLDIIMGGPGENPPNRPPTEIETSIMRKEVTNMLTLLAQAWSDFQYFIPSIENVETNPQFVQIVPPNEIVLLVTASVSWGEFTSFINVCWPFSLLEPLLEKLSDRFWMMGRKPEKVEERMEELRKASQKIPVTVQAVIGETELRLKEILDLEVGDVIRLGTHYKDEIRIDVEGRPKFRGIPGVFKGKYAVKVTGEFTNGGEYE,not soluble
5,MAHHHHHHMPTPRETVVAFLTQACCGTIVALHRMGGMEVMLYKEQLVVMLTRYFNSCWNSLLSGDDPYVVESFNMMKHDNPGCVMRYLFSVGTSVLPDEPPQEIARYSPEDTDDLEAARVTISETLQQLLAERIAVDPFQHSCEGLSLSAERTAWSEKGCPPQNFFEIS,soluble
6,MAISKKKRFFFDLAQDEDDAETVQEVKKVEQQLKLEPVVQPQHDLTNQTKANQSSQDRKFFSKDMPQFDFGPLLKFGDEFVKSFNQFPKQEPQTSTQPVNVQPQSEPTNFNNQVPTQPVHQTAEVHLNEFQQPTTTNFNQQPVATSNIQVEATQPIVEPVPQPEPQPAVEQPQVKQTTRPSNKLQEEENLPPPKAKVPGIIPLERQERLTTGVHFYTSTRVWNKVKRYAKAVNIPISRILTMILDQVIEE,soluble
7,MGSDKIHHHHHHMAKYRIMTFDGGGTLGALSLQLLNRLARQNPKLISRTHVFSGNSIGSFTALALASGRSPRETLQYFEDEILPAFSISRPGGPVFNQQLPYSGFIKAVRNFFPADLQLIDLRKRIVVPSFKLYSQKLDRWTPVLFHNFPGSPYLNEKVSDVILRSSGAPATQRAYQNYVDGYVVATNPSTASIAFAVGKANVPLDQIAVLSIGTGEAPTRLRRDTRGWGMVSADNIRPENLKNLPPNWGVLLDRSPNEPLLPFLQMIAGGNGYYESMVSANLLGDRFFRLDPRIPNFSKTDPAVVPAVIEIANKTNLQPANQFIEKNWGSK,not soluble
8,GPGSSISNLSMQTHAARMRTFMYWPSSVPVQPEQLASAGFYYVGRNDDVKCFCCDGGLRCWESGDDPWVEHAKWFPRCEFLIRMKGQEFVDEIQGRY,soluble
9,MLVGNIVKEVLAYKKGQIQQKLSSPQAFVSSRFQEKLQSEPAKETKGTTQLAKVEDMSQPVQSTKIETVVNKPEQSIHKVEEASKPEEKAETKNVDEVQVAQKEFERRFPETKNEAADTWGLTKKYNIQKIRSSNEGKYEDIIDRVSHTYGIPKTLIQKMIEVESDFNPKTVSHAGAKGLMQLMPANVKEMGIKNPFSPAESIEGGVKELSGYLKKNNGDLVLALASYNAGPGNVRKYGGVPPFKETQGYIKKILNIDVSK,not soluble
10,METIVQKFGGTSVGSVERIQHVANLIIEEYERGHSIVSVVSAMGKSTDELVALANAITENPSKREMDMLLSTGEQVTISLLTMALQAKGYHAISLTGWQAGITTESVHSSARITDIHTDRIQSYLAEGTIVIVAGFQGVSEDFEITTLGRGGSDTTAVALAAALKAKKCDIYTDVTGVYTTDPRVVKDAYKLDEISYDEMLELANLGAGVLHPRAVEFAKNHNVVLEVRSSMEQENGTIVKGECNMEQQSIVKGIAFEDNITRVTIKGLEQGSLSTVFSTLAAAHINVDIIIQSITNEGTVHLSFSIHSNDLRETLEVLEQNQEALHYEAVEYENHLAKVSIVGSGMVSNPGVAANMFTTLKEEDIHIKMVSTSEIKVSVVIDRLHLVTGVEALHQSFMAKIEPFVQMS,not soluble
11,MGSDKIHHHHHHMAKLYFNYSTMNAGKSTVLLQASHNYRERGMQTYLMTAAIDGRAGTGRIASRIGIGAEADIFTPRDDVFAMIRDRLGAGPVACVFVDEAQFLSPEQVWQLARVVDDLDVPVLAYGLRVDFQGKLFPGSATLLALADEMREVRTICKCGRKATMVIRQDASGRAITEGAQVQIGGNETYVSLCRKHWREATGDPGAKGH,not soluble
12,MTTNRETVLSMAKRKRSVVAINASGWRSNGEVMGLQIKDGVLYKDYDAAGYTGAEACVFFDDGTMKVYGNREVDADILISKGARNSFAFGIWLVKDSKPRTAQMTTWADLNVKHPRQAIGQRSDGTLVIITVDGRSLRSSGITAYDMPSLFLSEGCINAFLLDGGGSSQTAVEGKYINNISDGIERAVVDTLTISYPDDLEHHHHHH,not soluble
13,MGAPALPQIWQLYLKNYRIATFKNWPFLEDCACTPERMAEAGFIHCPTENEPDLAQCFFCFKELEGWEPDDNPIEEHRKHSPGCAFLTVKKQMEELTVSEFLKLDRQRAKNKIAKETNNKQKEFEETAKTTRQSIEQLAA,soluble
14,MSLNPNDFKDELKSVALEKANVNLRLDGDISWSFFPWLGLGLEDIGVSIGSDPEILQFDRAEFGLAILPLLKQKIQVDKVNLVNLKASLNKNAQGQGNWQLDLPDSTPAASSSIPATTASTASSTSANDTVEKLKLPDIQLDELRIENAQVQYRDEQTKQLINATLNVQLNDVQWDKAWPMVMDIAVTQSDLQGKSPIKAKATLNANLAVFPEREALSLDSLVLSADVESELLPTSPISAKLSAANVDVDLPQENVLAEGLALSVLGVNVDAKIQAYQVLSEPQFSAVLTVGEFNPRYLMTRLNLPLPEMSDDTAMTKARANVTLEGSLDSITAQPISITIDDTNIEANAVVDLSPLRWDVSVAGKNLDLDRYLPTPVEKGKDGKVEAITDVDIAAKTESGDLIPIDLIRSLNGHVGMVFENLTAKKLKIDKIELDSTQSNGLVKISPLRAYLYKGSVSSKASLDVRGITPVFNISPAIDGVQIQPLLVDFMDMNKIAGATYLNGELKAKGNSVDDLMSSLQGDLLIDIKKGALVGTNLTKTVCEGIAAVRKEKIDEQQFGPDTPFETMRFPAHIVNGRVSTPGLKISSAGIQVTGDGVVSLPNSSLDYQANVGIAGSELDKACHVNEKVTKLAFPIVCKGKFSDDPAGLCRPDIKGFGKLFADLAEDELKLKVDAEKARLKEGHHHHHH,soluble
15,MSFNDLYKASIYTMLGSIYAPSGGVIAAPTTSLPEVEGGKRNWDYRFAWVRDSSIIAEALLEAGSIVEARRIINFLLSLINFSSKPFYYPLYTIEGTIPPPERELRWLSGYKNSKPVRIGNGASSQIQLDIEGFFISALYKYVKMTNDQVFLKDVFSKVKYIGDWISENWSLKDSGIWEDRGSPQHYTHSKIMMWIALDKIGKLANLIGYADIWAKEREKLRNWIFTNCVKNNYFIRYCGNTDDVDSSLLSAPLYGFIEVSDSTFINTLTKIENDLKTDVFVKRYKTDFMGEAKHPFLLTTVWLARVYMRLGKIDSAIEILNKINKVSRELHLVGEHVDVEKGEFTGNFPQIFVHAQLVIAIKELNDTLTDKNIILEHHHHHH,not soluble
16,GSHMSAEASARPLRVGSRVEVIGKGHRGTVAYVGATLFATGKWVGVILDEAKGKNDGTVQGRKYFTCDEGHGIFVRQSQIQVFEDGADTTSPETPDS,soluble
17,MNSSLSLLHPYPFEKLNVLFKDVTPADLPLIPLSIGEPKHPAPEFVKQAIIDNFNHLSTYPNSKGLPELRESIARWLTQRFQLNHISSEDHILPVTGTREGIFSFVQALINRDEAPYVVMPNPFYQIYEGATLLAGAKPYFINCTAENDYLGDFDAVPSEVWEKTALLFVCTPGNPTGAVLSKEKLKKLIQLSDQYNFVIASDECYSELWFDQAPVGLLEVCAEIGRDNYKNCIVFHSLSKRSNLPGMRSGFVAGDAELLKPYLKFRTYHGAAMPVQHQLASIAAWNDEAHVEENRQQYRAKFNLFQSELGQLIPLKKPDAGFYYWLHVDNDEAFAKMLMEKAHIKVLPGRYLSRETEQGNPGENHVRMALVADLAQCEQVVQRLKKVL,not soluble
18,MGSDKIHHHHHHMAKNKQEDIFDAAMQLFAERGYDGTTIPMIAEKAKVGAGTIYRYFENKEALVNSLFSKSMLQLSEMIKTDFPVEANIREQFSHTYNRLFEFARNNVDAFLFTNSHCDSYFLDEQSKKIFDDFIGFFMNIIEDGIVKGLLRPLPPVALIIIVYQPLEKLIKVIATGQLEYSKELVKELEESSWNAIRII,not soluble
19,MGSDKIHHHHHHNTPREVTLHFLRTAGHPLTRWALQRQPPSPKQLEEEFLKIPSNFVSPEDLDIPGHASKDRYKTILPNPQSRVCLGRAQSQEDGDYINANYIRGYDGKEKVYIATQGPMPNTVSDFWEMVWQEEVSLIVMLTQLREGKEKCVHYWPTEEETYGPFQIRIQDMKECPEYTVRQLTIQYQEERRSVKHILFSAWPDHQTPESAGPLLRLVAEVEESPETAAHPGPIVVHCSAGIGRTGCFIATRIGCQQLKARGEVDILGIVCQLRLDRGGMIQTAEQYQFLHHTLALYAGQLPEEPSP,not soluble
20,MSLIRAMQKSDYEAVYKLWCEIKGFGIRSIDDSKENIENFLDRNPNLSVVAVIDEEIVGSILCGHDGRTGGFYHVCVHKDHRKKGIAHEMAKFCLEALKAQKINKIALIAFKNNDLGNEFWKHYGFTLREDANYYDLSLNEYNQTSFNAEGHHHHHH,soluble
21,MGSDKIHHHHHHGCSRRDILDDYPVSGVEVRLDWSGVTEKLPEGVRIIFYPKDEKGRKIDTYLSVTGGEVKVPSGHYAVVIYNYDTETVLIRGEESYETIQAYTNFCKLGIAGTEKMVWGPDPLYVVNIDDLDIQNSEETLILKLKPKLVIRTYSFSIKVQGLSNVSNVIGSIGGMADHYFLGKAYAMCDDYPINIDLNVKAGKIEGVFTTFGLPEAIITRLEIKLPVMMNLMIIKVDNSVQEVKINITEAVQEPTGGGEGGEGEETKPPALVEVEIEDEIKVDDVETPPSGGGGIGGDVGDWDDETNVELPVG,not soluble
